From paper PMC2212462 (The Journal of Experimental Medicine, 1998)

Experiments:
[1] = target: CD3-ε (human (endogenous in HPB-ALL)) (UniProt P07766); experiment: co-IP
[2] = target: the molecule itself; experiment: non-reducing and reducing SDS-PAGE with Western blot

Sequence of CD3-ε (human (endogenous in HPB-ALL)) (P07766 23-207): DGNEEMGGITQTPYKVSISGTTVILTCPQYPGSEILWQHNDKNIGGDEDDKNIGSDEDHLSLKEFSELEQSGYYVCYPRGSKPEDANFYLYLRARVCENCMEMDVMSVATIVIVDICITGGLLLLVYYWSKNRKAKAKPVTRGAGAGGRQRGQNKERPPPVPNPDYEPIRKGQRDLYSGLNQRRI

## T cell receptor interacting molecule (TRIM) (from UniProt Q6PIZ9 1-186) (natural protein)
[1]
  reduction of TRIM in the lysate after depletion of CD3: 67%

B1: T cell receptor interacting molecule (TRIM) (natural protein)
chain: MSGISGCPFFLWGLLALLGLALVISLIFNISHYVEKQRQDKMYSYSSDHTRVDEYYIEDTPIYGNLDDMISEPMDENCYEQMKARPEKSVNKMQEATPSAQATNETQMCYASLDHSVKGKRRKPRKQNTHFSDKDGDEQLHAIDASVSKTTLVDSFSPESQAVEENIHDDPIRLFGLIRAKREPIN
[2]
  stoichiometry N: 2
